US20260055205A1 (published 2026)

Target: T1, human CD3 epsilon (human, UniProt P07766 23-126, limits assumed)
T1 construct: also called huCD3e
Assay: Octet, crude lysate
Method: Pool 2 consisted of paTCE molecules each containing PSMA.262 and one of 64 CD3.23 mutation combination variants. Stability and affinity of the individually expressed molecules in the form of crude lysate was evaluated by Octet. […] The binding of these anti-CD3 molecules (CD3.227, CD3.228, CD3.229 and CD3.230) to human and cynomolgus CD3 was measured by Octet and the Tm was measured by Differential Scanning Fluorimetry. All variants were paired with PSMA.262 except for CD3.23 which was paired with PSMA.5.

T1 sequence (P07766 23-126 limits assumed): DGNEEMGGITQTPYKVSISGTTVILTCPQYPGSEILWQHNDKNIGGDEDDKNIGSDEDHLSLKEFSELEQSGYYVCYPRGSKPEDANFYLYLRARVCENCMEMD

Binder	Kd [nM]
CD3.201 (bispecific antibody, V domains shown, paTCE with PSMA.262; also called AC3632) VH: EVQLLESGGGIVQPGGSLRLSCAASGFTFNTYAMNWVRQAPGKGLEWVGRIRSKRNNYATYYADSVKGRFTISRDDSKNTVYLQMNSLKTEDTAVYYCVRHENFGNSYVSWFAHWGQGTLVTVSS VL: ELVVTQEPSLTVSPGGTVTLTCRSSNGAVTSSNYANWVQQKPGQAPRGLIGGTNKRAPGTPARFSGSLLGGKAALTLSGVQPEDEAVYYCALWYPNLWVFGGGTKLTVL	8.6
CD3.209 (bispecific antibody, V domains shown, paTCE with PSMA.262; also called AC3640) VH: EVQLVESGGGIVQPGGSLRLSCAASGFTFNTYAMNWVRQAPGKGLEWVGRIRSKRNNYATYYADSVKGRFTISRDDSKNTVYLQMNELKTEDTAVYYCVRHENFGNSYVSWFAHWGQGTLVTVSS VL: ELVVTQEPSLTVSPGGTVTLTCRSSNGAVTSSNYANWVQQKPGQAPRGLIGGTNKRAPGTPARFSGSLLGGKAALTLSGVQPEDEAVYYCALWYPNLWVFGGGTKLTVL	5.6
CD3.204 (bispecific antibody, V domains shown, paTCE with PSMA.262; also called AC3635) VH: EVQLVESGGGIVQPGGSLRLSCAASGFTFNTYAMNWVRQAPGKGLEWVGRIRSKTNNYATYYADSVKGRFTISRDDSKNTVYLQMNSLKTEDTAVYYCVRHENFGNSYVSWFAHWGQGTLVTVSS VL: ELVVTQEPSLTVSPGGTVTLTCRSSNGAVTSSNYANWVQQKPGQAPRGLIGGTNKRAPGTPARFSGSLLGGKAALTLSGVQPEDEAVYYCALWYPNLWVFGGGTKLTVL	7.2
CD3.216 (bispecific antibody, V domains shown, paTCE with PSMA.262; also called AC3647) VH: EVQLVESGGGIVQPGGSLRLSCAASGFTFSTYAMNWVRQAPGKGLEWVGRIRSKTNNYATYYADSVKGRFTISRDDSKNTVYLQMNSLKTEDTAVYYCVRHENFGNSYVSWFAHWGQGTLVTVSS VL: ELVVTQEPSLTVSPGGTVTLTCRSSNGAVTSSNYANWVQQKPGQAPRGLIGGTNKRAPGTPARFSGSLLGGKAALTLSGVQPEDEAVYYCALWYPNLWVFGGGTKLTVL	11.2
CD3.215 (bispecific antibody, V domains shown, paTCE with PSMA.262; also called AC3646) VH: EVQLVESGGGIVQPGGSLRLSCAASGFTFSTYAMNWVRQAPGKGLEWVGRIRSKRNNYATYYADSVKGRFTISRDDSKNTVYLQMNSLKTEDTAVYYCVRHENFGNSYVSWFAHWGQGTLVTVSS VL: ELVVTQEPSLTVSPGGTVTLTCRSSNGAVTSSNYANWVQQKPGQAPRGLIGGTNKRAPGTPARFSGSLLGGKAALTLSGVQPEDEAVYYCALWYPNLWVFGGGTKLTVL	9.7
CD3.212 (bispecific antibody, V domains shown, paTCE with PSMA.262; also called AC3643) VH: EVQLVESGGGIVQPGGSLRLSCAASGFTFSTYAMNWVRQAPGKGLEWVGRIRSKTNNYATYYADSVKGRFTISRDDSKNTVYLQMNELKTEDTAVYYCVRHENFGNSYVSWFAHWGQGTLVTVSS VL: ELVVTQEPSLTVSPGGTVTLTCRSSNGAVTSSNYANWVQQKPGQAPRGLIGGTNKRAPGTPARFSGSLLGGKAALTLSGVQPEDEAVYYCALWYPNLWVFGGGTKLTVL	35.6
CD3.205 (bispecific antibody, V domains shown, paTCE with PSMA.262; also called AC3636) VH: EVQLLESGGGIVQPGGSLRLSCAASGFTFNTYAMNWVRQAPGKGLEWVGRIRSKYNDYATYYADSVKGRFTISRDDSKNTVYLQMNSLKTEDTAVYYCVRHENFGNSYVSWFAHWGQGTLVTVSS VL: ELVVTQEPSLTVSPGGTVTLTCRSSNGAVTSSNYANWVQQKPGQAPRGLIGGTNKRAPGTPARFSGSLLGGKAALTLSGVQPEDEAVYYCALWYPNLWVFGGGTKLTVL	7.2
CD3.202 (bispecific antibody, V domains shown, paTCE with PSMA.262; also called AC3633) VH: EVQLVESGGGIVQPGGSLRLSCAASGFTFNTYAMNWVRQAPGKGLEWVGRIRSKRNNYATYYADSVKGRFTISRDDSKNTVYLQMNSLKTEDTAVYYCVRHENFGNSYVSWFAHWGQGTLVTVSS VL: ELVVTQEPSLTVSPGGTVTLTCRSSNGAVTSSNYANWVQQKPGQAPRGLIGGTNKRAPGTPARFSGSLLGGKAALTLSGVQPEDEAVYYCALWYPNLWVFGGGTKLTVL	8.4
CD3.206 (bispecific antibody, V domains shown, paTCE with PSMA.262; also called AC3637) VH: EVQLVESGGGIVQPGGSLRLSCAASGFTFNTYAMNWVRQAPGKGLEWVGRIRSKYNDYATYYADSVKGRFTISRDDSKNTVYLQMNSLKTEDTAVYYCVRHENFGNSYVSWFAHWGQGTLVTVSS VL: ELVVTQEPSLTVSPGGTVTLTCRSSNGAVTSSNYANWVQQKPGQAPRGLIGGTNKRAPGTPARFSGSLLGGKAALTLSGVQPEDEAVYYCALWYPNLWVFGGGTKLTVL	10.3

More lines, in order of falling Kd, values ahead:

Kd [nM]	Binder
16.8	CD3.208 (bispecific antibody, V domains shown, paTCE with PSMA.262; also called AC3639) VH: EVQLVESGGGIVQPGGSLRLSCAASGFTFNTYAMNWVRQAPGKGLEWVGRIRSKYNNYATTYADSVKGRFTISRDDSKNTVYLQMNSLKTEDTAVYYCVRHENFGNSYVSWFAHWGQGTLVTVSS VL: ELVVTQEPSLTVSPGGTVTLTCRSSNGAVTSSNYANWVQQKPGQAPRGLIGGTNKRAPGTPARFSGSLLGGKAALTLSGVQPEDEAVYYCALWYPNLWVFGGGTKLTVL
15.6	CD3.207 (bispecific antibody, V domains shown, paTCE with PSMA.262; also called AC3638) VH: EVQLLESGGGIVQPGGSLRLSCAASGFTFNTYAMNWVRQAPGKGLEWVGRIRSKYNNYATTYADSVKGRFTISRDDSKNTVYLQMNSLKTEDTAVYYCVRHENFGNSYVSWFAHWGQGTLVTVSS VL: ELVVTQEPSLTVSPGGTVTLTCRSSNGAVTSSNYANWVQQKPGQAPRGLIGGTNKRAPGTPARFSGSLLGGKAALTLSGVQPEDEAVYYCALWYPNLWVFGGGTKLTVL
9.5	CD3.211 (bispecific antibody, V domains shown, paTCE with PSMA.262; also called AC3642) VH: EVQLVESGGGIVQPGGSLRLSCAASGFTFNTYAMNWVRQAPGKGLEWVGRIRSKTNNYATYYADSVKGRFTISRDDSKNTVYLQMNELKTEDTAVYYCVRHENFGNSYVSWFAHWGQGTLVTVSS VL: ELVVTQEPSLTVSPGGTVTLTCRSSNGAVTSSNYANWVQQKPGQAPRGLIGGTNKRAPGTPARFSGSLLGGKAALTLSGVQPEDEAVYYCALWYPNLWVFGGGTKLTVL
6.6	CD3.213 (bispecific antibody, V domains shown, paTCE with PSMA.262; also called AC3644) VH: EVQLVESGGGIVQPGGSLRLSCAASGFTFNTYAMNWVRQAPGKGLEWVGRIRSKYNDYATYYADSVKGRFTISRDDSKNTVYLQMNELKTEDTAVYYCVRHENFGNSYVSWFAHWGQGTLVTVSS VL: ELVVTQEPSLTVSPGGTVTLTCRSSNGAVTSSNYANWVQQKPGQAPRGLIGGTNKRAPGTPARFSGSLLGGKAALTLSGVQPEDEAVYYCALWYPNLWVFGGGTKLTVL
6.6	CD3.214 (bispecific antibody, V domains shown, paTCE with PSMA.262; also called AC3645) VH: EVQLVESGGGIVQPGGSLRLSCAASGFTFSTYAMNWVRQAPGKGLEWVGRIRSKYNDYATYYADSVKGRFTISRDDSKNTVYLQMNELKTEDTAVYYCVRHENFGNSYVSWFAHWGQGTLVTVSS VL: ELVVTQEPSLTVSPGGTVTLTCRSSNGAVTSSNYANWVQQKPGQAPRGLIGGTNKRAPGTPARFSGSLLGGKAALTLSGVQPEDEAVYYCALWYPNLWVFGGGTKLTVL
5.7	CD3.210 (bispecific antibody, V domains shown, paTCE with PSMA.262; also called AC3641) VH: EVQLVESGGGIVQPGGSLRLSCAASGFTFSTYAMNWVRQAPGKGLEWVGRIRSKRNNYATYYADSVKGRFTISRDDSKNTVYLQMNELKTEDTAVYYCVRHENFGNSYVSWFAHWGQGTLVTVSS VL: ELVVTQEPSLTVSPGGTVTLTCRSSNGAVTSSNYANWVQQKPGQAPRGLIGGTNKRAPGTPARFSGSLLGGKAALTLSGVQPEDEAVYYCALWYPNLWVFGGGTKLTVL
